Data from patent US11807881B2, “Polypeptide, fusion polypeptide, and antibiotic against gram-negative bacteria comprising same” (priority 2020, dated 2023).

Legend:
Assay type in all cases: cell-based
Enterobacter cloacae = assay: CFU reduction test; conditions: E. cloacae CCARM 0252
Source text: (§1) In addition, that the LNT101 endolysin had the antibacterial ability in various gram negative bacterium was confirmed by a CFU reduction test, and the result was shown in Table 2 below.

Klebsiella aerogenes = assay: CFU reduction test; conditions: K. aerugenes CCARM 16006
Source text: as §1

[1] = system: gram negative bacterium (Pseudomonas aeruginosa (PA01; ATCC 15692) and Acinetobacter baumannii (ATCC 19606)); assay: NPN uptake assay (outer membrane permeabilization)
Procedure: In order to evaluate the outer membrane permeabilization activity of the gram negative bacterium of the fusion polypeptide prepared in the Example 3.2, NPN uptake assay was performed. As representative gram negative bacterium, Pseudomonas aeruginosa and Acinetobacter baumannii were used for the test.
Pseudomonas aeruginosa (PA01; ATCC 15692) or Acinetobacter baumannii (ATCC 19606) was cultured by OD600=0.3 and centrifuged at 1,000 g for 10 minutes, and then it was resuspended with a ½ volume of 5 mM HEPES (Hydroxyethyl piperazine Ethane Sulfonic acid) (pH 7.2). 40 μM NPN (1-N-phenylnaphthylamine) solution (40 μM NPN in 5 mM HEPES, pH7.2) 50 μl, the test substance (LNT101, LNT102 or LNT103) 50 μl, and strain suspension solution 100 μl (total 200 μl) were added to a microplate and reacted at 37° C. for 1 hour. Then, fluorescence was measured under the condition of excitation 350 nm and emission 420 nm with a microplate reader (Infinite M200 Pro, TECAN). As a positive control group, Cecropin A (SEQ ID NO: 8), EDTA, or polymyxin B was used, and as a negative control group, 10 μM NPN solution was used. All the experiments were performed in 3 sets. […]

Klebsiella pneumoniae = assay: CFU reduction evaluation; conditions: Klebsiella pneumoniae (ATCC 2208); 2 μM, 2 hours
Procedure: (§2) In order to confirm the killing ability against gram negative bacterium of the fusion polypeptide LNT103 prepared in Example 3.2, CFU reduction evaluation was performed for various gram negative bacterium. In order to perform the CFU reduction evaluation, 2 μM of each of LNT101, LNT102, and LNT103 prepared in Example 3, and 1×10^6 CFU of each of Pseudomonas aeruginosa (PA01; ATCC 15692), Acinetobacter baumannii (ATCC 17978), Escherichia coli (ATCC 8739), Klebsiella pneumoniae (ATCC 13883), and Enterobacter aerogenes (CCARM 16006) were added to reaction buffer (20 mM Tris-Cl, pH7.5) so that the final volume was 200 μl, and it was left at 37° C. for 2 hours. After that, the number of the colonies of each gram negative bacterium was confirmed to compare and evaluate the antibiotic effect of each polypeptide. As a control group, the PBS treatment group (treating PBS in the same volume as the fusion polypeptide) was used.

Escherichia coli = assay: CFU reduction evaluation; conditions: E. coli (ATCC 8739); 2 μM, 2 hours
Procedure: as §2

B1: LNT101: endolysin derived from bacteriophage PBPA90, amino acid sequence SEQ ID NO: 1 (259 aa), purified with 6× His tag (protein)
chain: MGTVLKRGDRGSAVEDLQMKLRVAGYAVSADGIFGGDTEKAVRDFQASKALVVDGKVGPATLAELAKSATVPAKWEAIPFPTANKSRSAAMPTLNAVGAMTGTDSRLLATFASIESAFDYTVKASTSSATGWFQFLDATWDDMIKAHGSKYGIPKDPTRALRKDPRANALMGAEFLKGNAAVLRPVINREPSDTDLYLAHFLGAGGAKKFLSADQKTLGEVLFPKPAKANPSIFSNKGVPRTLAEIYKLFEDKVSKHRA
modifications: 6xHis tag; synthetic_Endolysin LNT101
CFU reduction (Enterobacter cloacae): ◯ (‘◯’ means reduction of 0.5 log CFU or more through the CFU reduction assay)
CFU reduction (Klebsiella aerogenes): ◯ (‘◯’ means reduction of 0.5 log CFU or more through the CFU reduction assay)

B2: LNT103: fusion polypeptide [Cecropin A]-[linker (GSGSGS)]-[endolysin LNT102]; SEQ ID NO: 15 (MAS, His tag) used in the tests (protein)
chain: MASKWKLFKKIEKVGQNIRDGIIKAGPAVAVVGQATQIAKGSGSGSMGTVLKRGDRGSAVEDLQMKLNVAGYNLSADGIFGGDTEKAVRDVQAGAGLVVDGKVGPKTLYAIAKSATVPAKWEAIPFPTANKSRSAAMPTLNAVGAMTGVDSRLLATFASIESAFDYTVKAKTSSATGWFQFLDATWDDMIKAYGSKYGIPKDPTRALRKDPRANALMGAEFIKGNAAVLRPVINREPSDTDLYLAHFLGAGGAKKFLSADQKTLGEVLFPKPAKANPSIFSNKGVPRTLAEIYKLFEDKVSKHRALEHHHHHH
modifications: synthetic_Fusion Polypeptide LNT103 with MAS, His tag, and extra sequence
outer membrane permeabilization activity (NPN uptake, fold change over control) ([1]; 2 μM, 37° C. 1 hour, compared with LNT101, LNT102, cecropin A 2 μM, polymyxin B 2 μM, EDTA 1 mM): higher outer membrane permeabilization activity against gram negative bacterium than the polypeptides LNT101 and LNT102 at the same concentration
outer membrane permeabilization activity (NPN uptake, fold change over negative control) ([1]; LNT103 0.29 μM, 0.88 μM, 2.65 μM): increased in a concentration-dependent manner
CFU Counting result (Klebsiella pneumoniae): 0 log CFU/ml
CFU Counting result (Escherichia coli): 0 log CFU/ml
